Laboratory results published in PMC7772773.

Target: EGFP-RABL2B (UniProt Q9UNT1)
Assay: co-immunoprecipitation (IP anti-EGFP, Western blot anti-Myc), IP/input band quantitation
Details: lysates from HEK293T cells; Input is 2.5% of lysate used for IP; parent: 100

Sequence of EGFP-RABL2B (Q9UNT1 whole entry): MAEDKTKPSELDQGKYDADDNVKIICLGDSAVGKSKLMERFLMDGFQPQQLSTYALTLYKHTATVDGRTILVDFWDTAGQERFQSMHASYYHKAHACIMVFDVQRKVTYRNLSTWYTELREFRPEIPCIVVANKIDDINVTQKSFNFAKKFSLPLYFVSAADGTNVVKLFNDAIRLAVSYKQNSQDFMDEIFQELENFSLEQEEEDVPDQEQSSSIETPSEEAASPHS

Substance: CD8α-(HTR6-IC3)-myc R216A; K217A; Q218A
- percent of parent: 29%
